# Source: publication PMC10943098
# Target: PP2A-B55 phosphatase (B55, A and C subunits) of Xenopus egg extracts (Xenopus (endogenous in egg extracts)) (UniProt Q7ZX64)
# Experiment: enzyme inhibition kinetics (dephosphorylation of p-S113-Arpp19); kinase inactivated interphase extracts diluted 1/50 to 1/200; substrate p-S113-Arpp19 120 to 2000 nM; FAM122A 50, 125 and 250 nM or Thio-S71-Arpp19 1, 2 and 3 nM; quantitative western blot; global fit, competitive mode
row,Ki [µM],Substance
1,0.0281,His-Xenopus FAM122A (wildtype) (natural protein)
2,0.00022,untagged thio-S71-phosphorylated Arpp19 (natural protein)
